Patent US20230144459A1 (BIOND BIOLOGICS, published 2023)
Where a chain is given by its changes, count along the chain named. Where no end group is shown, it is not given here.

Assays:
[1] = molecular target: T1, BSA conjugated CD28 stalk region dimeric peptide (human, also: dimer, conjugated to BSA via C-terminal Lys); test: ELISA, BSA conjugated dimeric peptide on plate, serial dilution of M9
T1 construct: also called stalk region peptide
T1 peptide: GKHLCPSPLFPGPSKPK

[2] = molecular target: T2, c-Myc conjugated and biotinylated human CD28 stalk region dimeric peptide (wild-type) (human, C-terminal biotin; dimer by a disulfide linkage at Cysteine 141 (CD28 numbering)); test: direct ELISA, wild-type biotinylated dimeric stalk peptide on neutravidin plates
T2 construct: N-terminal tag, five glycines, then His134-Pro152 of human CD28; also called substrate peptide; wild-type CD28 stalk region dimeric peptide
T2 peptide: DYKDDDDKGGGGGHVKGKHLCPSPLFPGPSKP

[3] = molecular target: T3, L145K CD28 stalk region dimeric peptide (human, C-terminal biotin; dimeric); test: direct ELISA on biotinylated dimeric peptide on neutravidin plates
T3 construct: also called CD28 stalk region peptide with mutation at the cleavage site
T3 peptide: T2 peptide with L25K

membranal human CD28 [4] = molecular target: T4, membranal human CD28 (human, UniProt P10747 19-220); test: flow cytometry on HEK293 cells over expressing human CD28; percent reduction of median CD86-Fc (2 µg/mL) signal; competitor CD86-Fc
T4 construct: Full-length human CD28 on stably transfected HEK293 cells, or native CD28 on human CD4 T cells and PBMC in the shedding assays; Homodimer through Cys 141; also called mCD28; membrane CD28

membranal human CD28 [5] = molecular target: T4, membranal human CD28; test: cell-based or functional assay

B1: antibody M9 (antibody, V domains shown)
VH: DVKLVESGGGLVKLGGSLKLSCVASGFTFSSYYMSWVRQTPEKRLEWVATISDGGDNTYYAGTVTGRFTISRDFAKNTLYLQMNSLTSEDTAVYYCARIHWPYYFDSWGQGTTLTVSS
VL: QFVLSQSPAILSASPGEMLTMTCRASSSVSYMNWYQQKPGSSPKPWIYATSDLASGVPARFSGSGSGTSYSLTISRVEAEDAATYYCQQWSSHPPTFGGGTKLEIR
notes: Full-size mouse antibody from CD1 mice immunised with the dimeric stalk peptide, detected with anti mouse IgG; also called clone M9; anti-cleavage antibody M9
[1]
  binding result: binds

B2: VHH clone 4A4 (VHH)
VHH: EVQLVESGGGLVQAGGSLRLSCAASGSLFSINAMAWYRQAPGKQRELVAAITSSGSTNYANSVKGRFTVSRDNAKNTMYLQMNSLKPEDTAVYYCVVDEYGSDYWIWGQGTQVTVSS
notes: VHH with AAA linker and C-terminal His6, made in CHO cells
[2]
  binding result: binds
[3]
  binding result: no binding (tested: 0.2-5 µg/mL)

B3: VHH clone 4A1 (VHH)
VHH: QVQLVESGGGLVQAGGSLRLSCAASGSIFSINAMGWYRQAPGKQRERVAAITSGGSTNYADSVKGRFTISRDNAKNTVYLQMNNLEPRDAGVYYCVVDLYGEDYWIWGQGTQVTVSS
notes: as for B2
[2]
  binding result: binds
[3]
  binding result: no binding (tested: 0.2-5 µg/mL)

B4: VHH clone 2A1 (VHH)
VHH: EVQLVESGGGLVQAGESLRLSCAASGSIASINAMGWYRQAPGSQRELVAAISGGGDTYYADSVKGRFTISRDNAKTTVYLQMNSLRPEDTAVYYCVVDLYGSDYWDWGQGTQVTVSSAAAHHHHHH
notes: VHH with AAA linker and C-terminal His6, made in CHO cells; also called VHH #2A1; 2A1-6H
Membranal human CD28 [4]
  Blocking CD86 binding (%): 8.2%
[2]
  binding result: binds
[3]
  binding result: no binding (tested: 0.2-5 µg/mL)
Membranal human CD28 [5]
  Inhibition (%) of CD28 shedding: 58.9%
